Substitutions are numbered along the chain they refer to.
T1: monkey CEA expressed on CHO cell surface (cynomolgus monkey)
T1 construct: also called cynoCEA-CHO; monkey CEA proteins on the cell surface
T1 chain: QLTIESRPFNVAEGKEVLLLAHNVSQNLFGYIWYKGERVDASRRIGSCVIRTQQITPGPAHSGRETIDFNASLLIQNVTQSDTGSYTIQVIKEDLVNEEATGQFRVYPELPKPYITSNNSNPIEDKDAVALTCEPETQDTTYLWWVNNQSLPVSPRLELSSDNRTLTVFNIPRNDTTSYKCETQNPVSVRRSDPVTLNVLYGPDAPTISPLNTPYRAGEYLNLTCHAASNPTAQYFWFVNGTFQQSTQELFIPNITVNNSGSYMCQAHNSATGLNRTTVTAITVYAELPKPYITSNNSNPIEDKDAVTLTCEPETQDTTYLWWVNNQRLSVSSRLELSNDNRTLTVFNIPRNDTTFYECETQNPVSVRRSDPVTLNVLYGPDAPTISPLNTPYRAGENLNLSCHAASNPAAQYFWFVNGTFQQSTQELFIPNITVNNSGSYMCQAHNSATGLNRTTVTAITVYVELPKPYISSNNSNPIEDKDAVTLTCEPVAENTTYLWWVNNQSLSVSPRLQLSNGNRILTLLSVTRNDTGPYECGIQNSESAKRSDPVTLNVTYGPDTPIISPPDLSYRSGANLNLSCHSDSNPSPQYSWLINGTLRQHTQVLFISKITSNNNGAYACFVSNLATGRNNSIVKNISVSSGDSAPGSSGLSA

T2: human CEA protein on the cell surface (human, UniProt P06731 35-685)
T2 construct: whole, on cells; also called CEACAM-5; CD66e
T2 sequence (looked up): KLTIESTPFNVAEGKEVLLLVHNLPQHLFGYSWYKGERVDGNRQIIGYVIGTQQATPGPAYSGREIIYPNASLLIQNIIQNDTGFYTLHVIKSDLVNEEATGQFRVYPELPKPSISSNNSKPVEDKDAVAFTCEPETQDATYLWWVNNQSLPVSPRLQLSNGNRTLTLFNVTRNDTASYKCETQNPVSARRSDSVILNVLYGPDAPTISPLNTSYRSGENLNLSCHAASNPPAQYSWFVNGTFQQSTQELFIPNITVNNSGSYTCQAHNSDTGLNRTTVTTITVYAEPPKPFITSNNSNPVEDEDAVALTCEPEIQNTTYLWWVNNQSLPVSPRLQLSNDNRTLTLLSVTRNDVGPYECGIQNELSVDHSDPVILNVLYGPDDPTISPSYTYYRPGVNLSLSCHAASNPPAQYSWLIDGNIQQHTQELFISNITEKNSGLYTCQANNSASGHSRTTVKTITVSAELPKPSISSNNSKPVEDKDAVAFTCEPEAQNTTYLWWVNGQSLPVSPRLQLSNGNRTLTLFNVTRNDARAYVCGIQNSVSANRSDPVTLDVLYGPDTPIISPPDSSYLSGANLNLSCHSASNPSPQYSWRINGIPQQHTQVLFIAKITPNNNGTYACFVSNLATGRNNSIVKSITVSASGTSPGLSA

B1: Hu47-10 (antibody, human IgG1, kappa, V domains shown)
VH: EVQLVQSGSELKKPGASVKVSCKASGYTFTTYGMSWVKQAPGQGLKWMGWINTYSGVPTYADDFKGRFVFSLDTSVSTAYLQISSLKAEDTAVYYCARRGNYGRWDFDVWGQGTTVTVSS
VL: EIVLTQSPDFQSVTPKEKVTITCSVSSTISSSNLHWYQQKPDQSPKPLIYGTSNLASGVPSRFSGSGSGTDYTLTINSLEAEDAATYYCQQWSIYPLTFGQGTKLEIKR
B2: Hu47-6 (antibody, human IgG1, kappa, V domains shown)
VH: B1 VH with K38R
VL: B1 VL
B3: Hu67-5 (antibody, human IgG1, kappa, V domains shown)
VH: EVQLVQSGAEVKKPGASVKVSCKASGYTFTDYHMNWVRQAPGQRLEWMGDINPDIGGTSYNQNFKGRVTITRDTSASTAYMELSSLRSEDTAVYYCARWDFDSFANWGQGTLVTVSS
VL: DIVMTQSPSSLSASVGDRVTITCRASESVSIIGTNLIHWYQQKPGKPPKLLIYHASNLETGVPSRFSGSGSGTDFTLTISSLQPEDFATYYCLQSRKIPYTFGGGTKVEIKR
B4: Hu67-1 (antibody, human IgG1, kappa, V domains shown)
VH: B3 VH
VL: DIVMTQSPDSLAVSLGERATINCRASESVSIIGTNLIHWYQQKPGQPPKLLIYHASNLETGVPDRFSGSGSGTDFTLTISSLQAEDVAVYYCLQSRKIPYTFGGGTKVEIKR
B5: Hu67-7 (antibody, V domains shown)
VH: EVQLVQSGAEVKKPGESLKISCKGSGYSFTDYHMNWVRQMPGKGLEWMGDINPDIGGTSYNQNFKGQVTISADKSISTAYLQWSSLKASDTAMYYCARWDFDSFANWGQGTLVTVSS
VL: EIVMTQSPATLSVSPGERATLSCRASESVSIIGTNLIHWYQQKPGQAPRLLIYHASNLETGIPARFSGSGSGTEFTLTISSLQSEDFAVYYCLQSRKIPYTFGGGTKVEIKR
B6: Hu67-11 (antibody, human IgG1, kappa, V domains shown)
VH: B5 VH with R38K, Q67K, A72V
VL: B4 VL
B7: Hu67-12 (antibody, V domains shown)
VH: B5 VH with R38K, Q67K, A72V
VL: B5 VL
B8: Hu103-4 (antibody, human IgG1, lambda)
heavy: not shown
light: ELVVTQSPSASASLGASVKLTCTLSSQHSTYTIEWYQQQPEKGPRYVMELKKDGSHSTGDGIPDRFSGSSSGAERYLTISSLQSEDEADYYCGVGNTIKEQFVYVFGGGTKLTVLGQPKANPTVTLFPPSSEELQANKATLVCLISDFYPGAVTVAWKADGSPVKAGVETTKPSKQSNNKYAASSYLSLTPEQWKSHRSYSCQVTHEGSTVEKTVAPTECS
B9: Hu103-20 (antibody, human IgG1, lambda)
heavy: not shown
light: B8 light
B10: Hu103-17 (antibody, human IgG1, lambda)
heavy: not shown
light: B8 light with V4L, Y36H, V47L
B11: Hu103-9 (antibody, human IgG1, lambda)
heavy: not shown
light: B8 light with V4L, Y36H, V47L
B12: Hu103-5 (antibody, human IgG1, lambda)
heavy: not shown
light: B8 light with V4L, G43P, Y91I
B13: Hu103-19 (antibody, human IgG1, lambda)
heavy: not shown
light: B8 light with V4L
B14: Hu103-7 (antibody, human IgG1, lambda, V domains shown)
VH: EVQLVQSGSELKKPGASVKVSCKASGYTFTTYGVIWVRQAPGQGLEWMGWINTYSGVPTYADDFKGRFVFSLDTSVSTAYLQISSLKAEDTAVYYCARKKTLTTVTPWFAYWGQGTLVTVSS
VL: ELVVTQSPSASASLGASVKLTCTLSSQHSTYTIEWYQQQPEKPPRYVMELKKDGSHSTGDGIPDRFSGSSSGADRYLTISSLQSEDEADYICGVGNTIKEQFVYVFGGGTKLTVLG
B15: Hu103-15 (antibody, human IgG1, lambda)
heavy: not shown
light: B8 light with G43P, E74D, Y91I
B16: Hu103-12 (antibody, human IgG1, lambda)
heavy: not shown
light: B8 light
B17: Hu103-13 (antibody, human IgG1, lambda)
heavy: not shown
light: B8 light with V4L, G43P, Y91I
B18: Hu103-6 (antibody, human IgG1, lambda)
heavy: not shown
light: B8 light with G43P, Y91I
B19: Hu103-23 (antibody, human IgG1, lambda)
heavy: not shown
light: B8 light with G43P, E74D, Y91I
B20: Hu103-18 (antibody, human IgG1, lambda)
heavy: not shown
light: B8 light with V4L, V47L
B21: Hu103-21 (antibody, human IgG1, lambda)
heavy: not shown
light: B8 light with V4L, G43P, Y91I
B22: Hu103-14 (antibody, human IgG1, lambda)
heavy: not shown
light: B8 light with G43P, Y91I
B23: Hu103-10 (antibody, human IgG1, lambda)
heavy: not shown
light: B8 light with V4L, V47L
B24: Hu103-22 (antibody, human IgG1, lambda)
heavy: not shown
light: B8 light with G43P, Y91I

Molecular target: T1, monkey CEA expressed on CHO cell surface
Assay: FACS, cynoCEA-CHO cells
Method: (§1) In order to detect the binding of the antibody to the CEA protein on the cell surface, the binding activity of the antibody was determined by FACS using cells expressing CEA on the cell surface. Cells were harvested and centrifuged at 400 g at 4° C. for 5 min. Pre-cooled PBS containing FBS at final concentration 10% was added, and the mixture was centrifuged at 400 g at 4° C. for 5 min; the procedures were repeated twice. The cells were seeded into a 96-well plate at 10⁵ cells/well, and 100 μL of gradient diluted antibody solution was added to each well. The plate was incubated at 4° C. for 60 min and centrifuged, and the supernatant was removed. 250 μL of pre-cooled PBS containing FBS at final concentration 10% was added to each well to resuspend the cells, and the suspension was centrifuged at 400 g at 4° C. for 5 min, followed by the removal of the supernatant; the procedures were repeated twice. 50 μL of 1:200 diluted secondary antibody Alexa Fluor@488 goat anti-human IgG (H+L) (Lifetechologies, Cat #A11013) was added. […] 250 μL of pre-cooled PBS containing FBS at final concentration 10% was added to each cell to resuspend the cells, and the suspension was centrifuged at 400 g at 4° C. for 5 min; the procedures were repeated twice. 100 μL of pre-cooled PBS was added to each well to resuspend the cells. The plate was analyzed by a flow cytometer (BD, FACSverse) for fluorescence signal values.

EC50 [nM] | Binder
0.27 | B1
0.3 | B2
3.5 | B3
4.57 | B4
7.2 | B5
4.66 | B6
5.31 | B7
1.32 | B8
0.98 | B9
1.52 | B10
1.61 | B11
1.47 | B12
0.96 | B13
1.62 | B14
1.36 | B15
1.08 | B16
1.01 | B17
1.56 | B18
0.93 | B19
0.89 | B20
1.17 | B21
1.37 | B22
1 | B23
1.02 | B24

Molecular target: T2, human CEA protein on the cell surface
Assay: FACS, MKN45 cells
Method: as §1

EC50 [nM] | Binder
2.27 | B1
2.5 | B2
2.86 | B3
2.46 | B4
3.88 | B5
2.26 | B6
3.2 | B7
2.62 | B8
2.19 | B9
2.92 | B10
2.95 | B11
2.38 | B12
2.42 | B13
2.2 | B14
2.13 | B15
2.38 | B16
2.53 | B17
1.27 | B18
2.9 | B19
2.75 | B20
1.34 | B21
2.41 | B22
2.23 | B23
3.64 | B24

From US20230055408A1 (JIANGSU HENGRUI MEDICINE, published 2023)
